Data published in patent US20230263916A1 (NANOMAB TECHNOLOGY, published 2023).

Tests used:
[1] = target: T1, Her2 on cells (BT474, high expression; MDA-MB-231, low expression) (UniProt P04626 23-1255, limits assumed); assay: flow cytometry on MDA-MB-231 cells (low Her2), anti-HA Alexa Fluor488
T1 construct: whole, on cells; Endogenous Her2 of tumour cell lines
Description: (§1) (3) Cells were divided into 96-well plates after washing, where number of cells per sample was 3×10⁵. The dilute nanobodies were then added to each well, mixed and placed at 4° C. for 20 min.
(§2) (4) Cells were washed twice with PBS and resuspended with 100 uL PBS. […] Mouse anti-HA Alexa Fluor488 labeled antibody was then added to each sample, mixed and placed at 4° C. for 20 min.
(§3) (5) Cells were washed twice with PBS and then resuspended to the flow tube with 300 uL PBS. Samples were kept on ice in dark condition. Detection was held via machine.

[2] = target: T2, human Her2 (ECD)-Fc protein (human, UniProt P04626 23-652); assay: PE-ELISA, crude extract on antigen-coated plate
T2 construct: extracellular domain; Made in HEK293F cells; also called hHer2 (ECD)-Fc antigen; Her2 (ECD)-Fc antigen; not shown: TEV restriction site at the C-terminal of hHer2 (ECD); IgG1 Fc of the pFUSE-IgG1 vector
Description: (§4) (1) 10 μg Her2 (ECD)-Fc antigen (10 μg Fc in NaHCO₃ as control) dissolved in 100 mM NaHCO₃ (pH 8.2) was coupled to a NUNC plate then incubated at 4° C. overnight.
(§5) (5) The unbound antibody was washed off with PBST.
(§6) (6) When the OD value of the sample was over 3 times of the OD value of the control sample (Ratio+/−>3), the tested sample was determined to be a positive clone. […] Then all the positive clones were transferred to LA medium for plasmid extraction and sequencing.

[3] = target: T1, Her2 on cells (BT474, high expression; …); assay: flow cytometry on BT474 cells (high Her2), anti-HA Alexa Fluor488
Description: as §1, §2, §3

[4] = target: T2, human Her2 (ECD)-Fc protein; assay: PE-ELISA, A405 of antigen well over control well
Description: as §4, §5, §6

[5] = target: T3, human HER2 antigen protein (human, UniProt P04626 23-652); assay: Biacore, Her2 immobilised on CM-5 chip
T3 construct: Antigen coated in the ELISA of Embodiment 5 and immobilised on the CM-5 chip in Embodiment 7; Embodiment 7 says only 'antigen protein Her2' without species or construct; also called antigen protein Her2
Description: (1) Immobilization: the stationary phase antigen protein Her2 was immobilized on the surface of CM-5 sensor chip by carboxyl amino reaction.
(3) Chip regeneration: when next antibody was determined, the chip was washed with 10 mM Glycine.

B1: Nanobody No. 9 (VHH)
VHH: QVQLQESGGGSVQAGETLRLSCTASGFTFDDSDMGWYRQAPGSECELVSTISSDGNTYYSNSVKGRFTISQDNAKNTVYLQMNSLKPEDTAVYYCAADDQHYELGTCEALDYWGRGTQVTVSS
notes: camel VHH from pMECs phage display vector; also called Antibody no; not shown: tags (HA, His) implied by anti-HA detection and nickel column
For B1, the positive rate [1] was 9.5%, the “A405+” value [2] was 2.15 A405 and the positive rate [3] was 99.8%. The “Ratio(+/-)” value [4] was 24.3, the Kd [5] was 3.6 nM and the koff [5] was 0.00397 s⁻¹. For the same binder, the kon [5] was 1.11e+06 M⁻¹ s⁻¹.

B2: Nanobody No. 10 (VHH)
VHH: QVQLQESGGGSVQAGETLKLSCTASGFTFDDSTMAWYRQAPGNECKLVSTISSDGSTYYADSVKGRFTISQDNAKNTVYLQMNSLKPEDTAVYYCAADDQNYELGTCEALDYWGRGTQVTVSS
notes: camel VHH from pMECs phage display vector; also called Antibody no; 10; not shown: tags (HA, His) implied by anti-HA detection and nickel column
For B2, the positive rate [1] was 10.6%, the “A405+” value [2] was 1.63 A405 and the positive rate [3] was 99.7%. The “Ratio(+/-)” value [4] was 22.4, the Kd [5] was 6.47 nM and the koff [5] was 0.00457 s⁻¹. It also gave a kon [5] of 706000 M⁻¹ s⁻¹.

B3: Nanobody No. 17 (VHH)
VHH: QVQLQESGGGSVQAGGSLRLSCTASGFTFDDSDMGWYRQAPGNECELVSTISSDGSTYYADSVKGRFTISQDNAKNTVYLQMNSLKPEDTAVYYCADVQIPYGLGTCESLDYWGRGTQVTVSS
notes: camel VHH from pMECs phage display vector; also called Antibody no; 17; not shown: tags (HA, His) implied by anti-HA detection and nickel column
In the case of B3, the positive rate [1] is reported as 12.3%, the “A405+” value [2] is reported as 1.88 A405 and the positive rate [3] is reported as 99.9%. For the same binder, the “Ratio(+/-)” value [4] was 23.8, the Kd [5] was 6.68 nM and the koff [5] was 0.00421 s⁻¹. For the same binder, the kon [5] was 631000 M⁻¹ s⁻¹.

B4: Nanobody No. 13 (VHH)
VHH: QVQLQESGGGSVQAGETLRLSCTASGFTFDDSDMGWYRQAPGNECELVSTISADGSTFYADSVKGRFTISQDNAKNTVYLQMNSLKPEDTAVYYCASPENEYELGTCEALDYWGQGTQVTVSS
notes: camel VHH from pMECs phage display vector; also called Antibody no; 13; not shown: tags (HA, His) implied by anti-HA detection and nickel column
For B4, the positive rate [1] was 14.2%, the “A405+” value [2] was 2.24 A405 and the positive rate [3] was 99.9%. For the same binder, the “Ratio(+/-)” value [4] was 25.1, the Kd [5] was 1.18 nM and the koff [5] was 0.0015 s⁻¹. For the same binder, the kon [5] was 1.27e+06 M⁻¹ s⁻¹.

B5: Nanobody No. 26 (VHH)
VHH: QVQLQESGGGSVQAGETLRLSCTASGFTFDDSDMGWYRQAPGNECELVSSISSDGSTYYADSVKGRFTISQDNAKNTVYLQMNSLKPEDTGVYYCAAEGHRYELGTCAALDYWGRGTQVTVSS
notes: camel VHH from pMECs phage display vector; also called Antibody no; 26; not shown: tags (HA, His) implied by anti-HA detection and nickel column
B5 was tested, and the positive rate [1] was 16.7%, the “A405+” value [2] was 1.9 A405 and the positive rate [3] was 99.9%. The “Ratio(+/-)” value [4] was 21.1, the Kd [5] was 1.31 nM and the koff [5] was 0.00112 s⁻¹. The kon [5] was 857000 M⁻¹ s⁻¹.

B6: Nanobody No. 22 (VHH)
VHH: QVQLQESGGGSVQAGGSLRLSCTASGFTFDDSDMGWYRQAPGNECELVSRISRDGTTYYADSVKGRFTISQDNAKNTVYLQMNSLKPEDTAVYYCADINSGYELGTCESLDYWGRGTQVTVSS
notes: camel VHH from pMECs phage display vector; also called Antibody no; 22; not shown: tags (HA, His) implied by anti-HA detection and nickel column
In the case of B6, the positive rate [1] is reported as 5.8%, the “A405+” value [2] is reported as 1.78 A405 and the positive rate [3] is reported as 99.7%. For the same binder, the “Ratio(+/-)” value [4] was 21.3, the Kd [5] was 1.98 nM and the koff [5] was 0.0019 s⁻¹. For the same binder, the kon [5] was 957000 M⁻¹ s⁻¹.

B7: Nanobody No. 23 (VHH)
VHH: QVQLQESGGGSVQAGGSLKLSCSASGFTFDDTDMGWYRQAPGNECELVSTISSDGTTYYTDSVKGRFTISQDNAKNTVYLQMNSLKPEDTAVYYCAAINSGYELGTCESLDYWGRGTQVTVSS
notes: camel VHH from pMECs phage display vector; also called Antibody no; 23; not shown: tags (HA, His) implied by anti-HA detection and nickel column
In the case of B7, the positive rate [1] is reported as 11.5%, the “A405+” value [2] is reported as 1.77 A405 and the positive rate [3] is reported as 99.9%. The “Ratio(+/-)” value [4] was 17.1, the Kd [5] was 3.73 nM and the koff [5] was 0.00255 s⁻¹. For the same binder, the kon [5] was 682000 M⁻¹ s⁻¹.
